Article PMC3605359, “Expression, purification and biochemical characterization of Schizosaccharomyces pombe Mcm4, 6 and 7” (BMC Biochemistry, 2013)

Assays:
[1] = biological target: the molecule itself; assay: SEC; 4C1 at much lower protein concentration: a center fraction of the 12-mer peak injected again on the same column (hexamer peak, ~250 kDa)
[2] = biological target: the molecule itself; assay: SEC; 4C1 at the higher protein concentration (12-mer peak, ~500 kDa); 250 mM NaCl, 50 mM Tris pH8, 1 mM DTT

B1: 4C1, core fragment of S. pombe Mcm4 (domain or fragment)
chain: ISDEEVEKIQQVSKRDDIYDILSRSLAPSIYEMDDVKKGLLLQLFGGTNKSFHKGASPRYRGDINILMCGDPSTSKSQILKYVHKIAPRGVYTSGKGSSAVGLTAYITRDQDTKQLVLESGALVLSDGGICCIDEFDKMSDATRSILHEVMEQQTVTVAKAGIITTLNARTSILASANPIGSKYNPDLPVTKNIDLPPTLLSRFDLVYLILDRVDETLDRKLANHIVSMYMEDTPEHATDMEVFSVEFLTSYITYARNNINPVISEEAAKELVNAYVGMRKLGEDVRASEKRITATTRQLESMIRLSEAHAKMHLRNVVEVGDVLEAARLIKTAIKDYATD
- stoichiometry N [1]: 6
- stoichiometry N [2]: 12
